Measurements as given in US20170333564A1 (UNIVERSITY OF ROCHESTER, published 2017).
No end group written: not given here. *: point of attachment. Myristoyl = CCCCCCCCCCCCCC(=O)*

Biological target: IRK (IR β-chain) immunoprecipitated from HEK cell lysates (UniProt P06213 763-1382, limits assumed)
Test: cell-based or functional assay

Sequence of IRK (IR β-chain) immunoprecipitated from HEK cell lysates (P06213 763-1382 limits assumed): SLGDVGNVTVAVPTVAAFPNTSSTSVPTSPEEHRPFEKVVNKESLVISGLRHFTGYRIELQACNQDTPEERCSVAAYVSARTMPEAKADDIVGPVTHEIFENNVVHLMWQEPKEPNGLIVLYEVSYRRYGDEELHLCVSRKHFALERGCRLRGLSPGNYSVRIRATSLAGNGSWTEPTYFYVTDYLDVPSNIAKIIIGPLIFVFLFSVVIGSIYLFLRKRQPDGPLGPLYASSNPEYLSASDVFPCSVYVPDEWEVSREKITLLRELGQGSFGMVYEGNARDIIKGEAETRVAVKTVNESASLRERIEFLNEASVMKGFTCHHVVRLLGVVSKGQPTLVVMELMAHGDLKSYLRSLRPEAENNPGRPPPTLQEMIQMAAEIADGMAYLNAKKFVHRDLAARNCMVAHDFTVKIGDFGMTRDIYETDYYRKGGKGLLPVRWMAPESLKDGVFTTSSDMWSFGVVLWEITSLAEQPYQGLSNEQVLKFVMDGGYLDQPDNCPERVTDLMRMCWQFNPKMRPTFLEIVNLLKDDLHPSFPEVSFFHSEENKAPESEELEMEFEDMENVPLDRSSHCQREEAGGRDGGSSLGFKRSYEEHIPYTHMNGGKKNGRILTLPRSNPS

B1: P2, myr-KYCCSRK (hBVR-based peptide) (peptide)
peptide: Myristoyl-KYCCSRK
modifications: cysteine pairing not given here
kinase activity of IRK immunoprecipitated from HEK cells treated with 40 µM myristoylated peptide for 15 minutes, IRS peptide substrate: ~3 fold
